B1: HMOX1 (parent)
chain: YHIYVALEEEIERNKESPVFAPVY

Variants of: B1
Assay: protein stability index of a GFP-peptide fusion (GPS, HEK-293T) (PSI 1-6); higher = more stable
Conditions: c terminus: a fixed tail appended
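Further: lentivirally expressed fusions sorted by FACS into six bins by GFP to DsRed ratio, PSI derived from sequencing read proportions per bin multiplied by bin number.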

Variant	protein stability index
YHIYVALEEEIEFNKESPVFAPVY [R13F]	2.97
YHIYVALEEEIEGNKESPVFAPVY [R13G]	1.55
YHIYVALEEEIEINKESPVFAPVY [R13I]	2.02
YHIYVALEEEIEPNKESPVFAPVY [R13P]	2.11
YHIYVALEEEIEQNKESPVFAPVY [R13Q]	1.54
YHIYVALEEEIELNKESPVFAPVY [R13L]	1.22
YHIYVALEEEIETNKESPVFAPVY [R13T]	1.19
YHIYVALEEEIEANKESPVFAPVY [R13A]	1.34
YHIYVALEEEIEMNKESPVFAPVY [R13M]	1.4
YHIYVALEEEIESNKESPVFAPVY [R13S]	2.23
YHIYVALEEEIEENKESPVFAPVY [R13E]	1.34
YHIYVALEEEIEDNKESPVFAPVY [R13D]	1.52
YHIYVALEEEIECNKESPVFAPVY [R13C]	1.39
YHIYVALEEEIEKNKESPVFAPVY [R13K]	2.14
YHIYVALEEEIEVNKESPVFAPVY [R13V]	2.02
YHIYVALEEEIEHNKESPVFAPVY [R13H]	1.75
YHIYVALEEEIEWNKESPVFAPVY [R13W]	2.25
YHIYVALEEEIENNKESPVFAPVY [R13N]	1.23
YHIYVALEEEIERNKESPVEAPVY [F20E]	2.52
YHIYVALEEEIERNKESPVMAPVY [F20M]	2.81
YHIYVALEEEIERNKESPVQAPVY [F20Q]	2.42
YHIYVALEEEIERNKESPVCAPVY [F20C]	3.24
YHIYVALEEEIERNKESPVIAPVY [F20I]	2.25
YHIYVALEEEIERNKESPVRAPVY [F20R]	2.95

Variant	protein stability index
YHIYVALEEEIERNKESPVLAPVY [F20L]	2.66
YHIYVALEEEIERNKESPVGAPVY [F20G]	3.15
YHIYVALEEEIERNKESPVNAPVY [F20N]	2.78
YHIYVALEEEIERNKESPVDAPVY [F20D]	2.95
YHIYVALEEEIERNKESPVAAPVY [F20A]	2.41
YHIYVALEEEIERNKESPVHAPVY [F20H]	2.47
YHIYVALEEEIERNKESPVPAPVY [F20P]	2.82
YHIYVALEEEIERNKESPVKAPVY [F20K]	2.27
YHIYVALEEECERNKESPVFAPVY [I11C]	2.46
YHIYVALEEEVERNKESPVFAPVY [I11V]	1.84
YHIYVALEEEYERNKESPVFAPVY [I11Y]	2.21
YHIYVALEEEFERNKESPVFAPVY [I11F]	1.6
YHIYVALEEEGERNKESPVFAPVY [I11G]	2.24
YHIYVALEEEHERNKESPVFAPVY [I11H]	2.01
YHIYVALEEELERNKESPVFAPVY [I11L]	1.57
YHIYVALEEESERNKESPVFAPVY [I11S]	2.15
YHIYVALEEETERNKESPVFAPVY [I11T]	1.54
YHIYVALEEEMERNKESPVFAPVY [I11M]	2.16
YHIYVALEEEAERNKESPVFAPVY [I11A]	1.31
YHIYVALEEEEERNKESPVFAPVY [I11E]	1.89
YHIYVALEEEWERNKESPVFAPVY [I11W]	2.18
YHIYVALEEENERNKESPVFAPVY [I11N]	1.48
YHIYVALEEERERNKESPVFAPVY [I11R]	1.56
YHIYVALEEEKERNKESPVFAPVY [I11K]	2.05

Variant	protein stability index
YHIYVALEEEQERNKESPVFAPVY [I11Q]	2.01
YHIYVALEEEDERNKESPVFAPVY [I11D]	1.58
YHIYVALEEEPERNKESPVFAPVY [I11P]	2.07
YHIYVALEEEIERNQESPVFAPVY [K15Q]	2.59
YHIYVALEEEIERNAESPVFAPVY [K15A]	2.92
YHIYVALEEEIERNRESPVFAPVY [K15R]	1.38
YHIYVALEEEIERNCESPVFAPVY [K15C]	2.2
YHIYVALEEEIERNLESPVFAPVY [K15L]	2.22
YHIYVALEEEIERNFESPVFAPVY [K15F]	2.13
YHIYVALEEEIERNVESPVFAPVY [K15V]	1.83
YHIYVALEEEIERNSESPVFAPVY [K15S]	1.98
YHIYVALEEEIERNWESPVFAPVY [K15W]	2.21
YHIYVALEEEIERNGESPVFAPVY [K15G]	1.9
YHIYVALEEEIERNPESPVFAPVY [K15P]	1.53
YHIYVALEEEIERNEESPVFAPVY [K15E]	1.37
YHIYVALEEEIERNNESPVFAPVY [K15N]	1.7
YHIYVALEEEIERNDESPVFAPVY [K15D]	1.57
YHIYVALEEEIERNTESPVFAPVY [K15T]	1.36
YHIYVALEEEIERNHESPVFAPVY [K15H]	1.42
YHIYVALEEEIERNYESPVFAPVY [K15Y]	2.13
YHIYVALEEEIERNIESPVFAPVY [K15I]	1.87
YHIYVALEEEIERNKEWPVFAPVY [S17W]	2.65
YHIYVALEEEIERNKEQPVFAPVY [S17Q]	1.57
YHIYVALEEEIERNKECPVFAPVY [S17C]	1.86

Variant	protein stability index
YHIYVALEEEIERNKEYPVFAPVY [S17Y]	1.26
YHIYVALEEEIERNKENPVFAPVY [S17N]	2.05
YHIYVALEEEIERNKEGPVFAPVY [S17G]	2.29
YHIYVALEEEIERNKEFPVFAPVY [S17F]	1.88
YHIYVALEEEIERNKERPVFAPVY [S17R]	2.2
YHIYVALEEEIERNKEPPVFAPVY [S17P]	2.02
YHIYVALEEEIERNKEAPVFAPVY [S17A]	2.27
YHIYVALEEEIERNKEHPVFAPVY [S17H]	1.83
YHIYVALEEEIERNKEEPVFAPVY [S17E]	1.85
YHIYVALEEEIERNKETPVFAPVY [S17T]	1.69
YHIYVALEEEIERNKEKPVFAPVY [S17K]	2.14
YHIYVALEEEIERNKELPVFAPVY [S17L]	2.19
YHIYVALEEEIERNKEIPVFAPVY [S17I]	2.46
YHIYVALEEEIERNKEDPVFAPVY [S17D]	2.3
YHIYVALEEEIERNKEVPVFAPVY [S17V]	1.65
YHIYVALEEEIERNKEMPVFAPVY [S17M]	1.93
YHIYVALEEEIWRNKESPVFAPVY [E12W]	2.27
YHIYVALEEEIPRNKESPVFAPVY [E12P]	3.7
YHIYVALEEEITRNKESPVFAPVY [E12T]	1.85
YHIYVALEEEIDRNKESPVFAPVY [E12D]	1.43
YHIYVALEEEIMRNKESPVFAPVY [E12M]	1.2
YHIYVALEEEIARNKESPVFAPVY [E12A]	1.68
YHIYVALEEEIVRNKESPVFAPVY [E12V]	1.93
YHIYVALEEEIQRNKESPVFAPVY [E12Q]	1.95

Variant	protein stability index
YHIYVALEEEIGRNKESPVFAPVY [E12G]	3.07
YHIYVALEEEIFRNKESPVFAPVY [E12F]	2.35
YHIYVALEEEIKRNKESPVFAPVY [E12K]	1.94
YHIYVALEEEIIRNKESPVFAPVY [E12I]	1.45
YHIYVALEEEIRRNKESPVFAPVY [E12R]	1.62
YHIYVALEEEISRNKESPVFAPVY [E12S]	2.42
YHIYVALEEEILRNKESPVFAPVY [E12L]	1.83
YHIYVALEEEICRNKESPVFAPVY [E12C]	1.52
YHIYVALEEEIHRNKESPVFAPVY [E12H]	1.58
YHIYVALEEEINRNKESPVFAPVY [E12N]	2.29
YHIYVALEEEIERNKISPVFAPVY [E16I]	1.42
YHIYVALEEEIERNKVSPVFAPVY [E16V]	2.14
YHIYVALEEEIERNKKSPVFAPVY [E16K]	2.13
YHIYVALEEEIERNKYSPVFAPVY [E16Y]	1.88
YHIYVALEEEIERNKMSPVFAPVY [E16M]	1.8
YHIYVALEEEIERNKDSPVFAPVY [E16D]	1.59
YHIYVALEEEIERNKWSPVFAPVY [E16W]	2.14
YHIYVALEEEIERNKLSPVFAPVY [E16L]	2.32
YHIYVALEEEIERNKQSPVFAPVY [E16Q]	2.11
YHIYVALEEEIERNKRSPVFAPVY [E16R]	1.8
YHIYVALEEEIERNKNSPVFAPVY [E16N]	2.25
YHIYVALEEEIERNKCSPVFAPVY [E16C]	1.57
YHIYVALEEEIERNKASPVFAPVY [E16A]	2.67
YHIYVALEEEIERNKGSPVFAPVY [E16G]	2.04

Variant	protein stability index
YHIYVALEEEIERNKHSPVFAPVY [E16H]	2.08
YHIYVALEEEIERNKTSPVFAPVY [E16T]	2.12
YHIYVALEEEIERNKSSPVFAPVY [E16S]	2.04
YHIYVALEEEIERNKFSPVFAPVY [E16F]	2.84
YHIYVALEEEIERNKPSPVFAPVY [E16P]	2.23
YHIYVALEEEIERNKESPMFAPVY [V19M]	2.24
YHIYVALEEEIERNKESPKFAPVY [V19K]	1.99
YHIYVALEEEIERNKESPTFAPVY [V19T]	2.32
YHIYVALEEEIERNKESPQFAPVY [V19Q]	2.14
YHIYVALEEEIERNKESPPFAPVY [V19P]	2.35
YHIYVALEEEIERNKESPFFAPVY [V19F]	1.84
YHIYVALEEEIERNKESPNFAPVY [V19N]	2.69
YHIYVALEEEIERNKESPIFAPVY [V19I]	1.72
YHIYVALEEEIERNKESPDFAPVY [V19D]	2.7
YHIYVALEEEIERNKESPGFAPVY [V19G]	2.37
YHIYVALEEEIERNKESPHFAPVY [V19H]	2.13
YHIYVALEEEIERNKESPWFAPVY [V19W]	1.57
YHIYVALEEEIERNKESPEFAPVY [V19E]	2.93
YHIYVALEEEIERNKESPLFAPVY [V19L]	1.7
YHIYVALEEEIERNKESPAFAPVY [V19A]	2.3
YHIYVALEEEIERNKESPSFAPVY [V19S]	2.15
YHIYVALEEEIERNKESPCFAPVY [V19C]	1.81
YHIYVALEEEIERNKESPRFAPVY [V19R]	3.44
YHIYVALEEEIERNKESPYFAPVY [V19Y]	1.46

Variant	protein stability index
YHIYVALEEEIERSKESPVFAPVY [N14S]	2.54
YHIYVALEEEIERTKESPVFAPVY [N14T]	2.81
YHIYVALEEEIERAKESPVFAPVY [N14A]	1.72
YHIYVALEEEIERGKESPVFAPVY [N14G]	1.98
YHIYVALEEEIERLKESPVFAPVY [N14L]	2.05
YHIYVALEEEIERVKESPVFAPVY [N14V]	1.49
YHIYVALEEEIERMKESPVFAPVY [N14M]	2.31
YHIYVALEEEIERHKESPVFAPVY [N14H]	2.14
YHIYVALEEEIERRKESPVFAPVY [N14R]	2.32
YHIYVALEEEIERIKESPVFAPVY [N14I]	1.26
YHIYVALEEEIERQKESPVFAPVY [N14Q]	2.62
YHIYVALEEEIERYKESPVFAPVY [N14Y]	1.45
YHIYVALEEEIERCKESPVFAPVY [N14C]	1.32
YHIYVALEEEIERDKESPVFAPVY [N14D]	2.06
YHIYVALEEEIEREKESPVFAPVY [N14E]	1.98
YHIYVALEEEIERFKESPVFAPVY [N14F]	2.15
YHIYVALEEEIERKKESPVFAPVY [N14K]	2.12
YHIYVALEEEIERNKESWVFAPVY [P18W]	2.31
YHIYVALEEEIERNKESNVFAPVY [P18N]	2.36
YHIYVALEEEIERNKESTVFAPVY [P18T]	2.06
YHIYVALEEEIERNKESAVFAPVY [P18A]	2.14
YHIYVALEEEIERNKESKVFAPVY [P18K]	2.03
YHIYVALEEEIERNKESGVFAPVY [P18G]	2.46
YHIYVALEEEIERNKESHVFAPVY [P18H]	2.23

Variant	protein stability index
YHIYVALEEEIERNKESCVFAPVY [P18C]	1.85
YHIYVALEEEIERNKESMVFAPVY [P18M]	1.75
YHIYVALEEEIERNKESYVFAPVY [P18Y]	1.89
YHIYVALEEEIERNKESSVFAPVY [P18S]	2.13
YHIYVALEEEIERNKESVVFAPVY [P18V]	1.59
YHIYVALEEEIERNKESIVFAPVY [P18I]	1.49
YHIYVALEEEIERNKESFVFAPVY [P18F]	1.79
YHIYVALEEEIERNKESQVFAPVY [P18Q]	1.61
YHIYVALEEEIERNKESDVFAPVY [P18D]	2.3
YHIYVALEEEIERNKESEVFAPVY [P18E]	2.59
YHIYVALEEEIERNKESRVFAPVY [P18R]	1.98
YHIYVALEEEIERNKESLVFAPVY [P18L]	1.53
YHIYVALEESIERNKESPVFAPVY [E10S]	2.81
YHIYVALEEVIERNKESPVFAPVY [E10V]	1.92
YHIYVALEERIERNKESPVFAPVY [E10R]	1.56
YHIYVALEEQIERNKESPVFAPVY [E10Q]	2.7
YHIYVALEETIERNKESPVFAPVY [E10T]	2.83
YHIYVALEEYIERNKESPVFAPVY [E10Y]	2
YHIYVALEENIERNKESPVFAPVY [E10N]	3.21
YHIYVALEEWIERNKESPVFAPVY [E10W]	1.26

— the supplement of paper PMC10567573
